Measurements from publication PMC5800945 (Journal of molecular biology, 2017).
Numbering of substitutions follows the chain as printed.

B1: Fab1H (anti-Asf1 Fab, wild-type switch region) (Fab, V domains shown)
VH: EVQLVESGGGLVQPGGSLRLSCAASGFNVSYSSIHWVRQAPGKGLEWVAYIYPSSGYTSYADSVKGRFTISADTSKNTAYLQMNSLRAEDTAVYYCARSYSTKLAMDYWGQGTLVTVSS
VL: DIQMTQSPSSLSASVGDRVTITCRASQSVSSAVAWYQQKPGKAPKLLIYSASSLYSGVPSRFSGSRSGTDFTLTISSLQPEDFATYYCQQSQWYPITFGQGTKVEIK
B2: Fab1H-FNQIKG (Fab, V domains shown)
VH: B1 VH with S118F, S119N
VL: B1 VL
B3: Fab1H-VSRRLP (Fab, V domains shown)
VH: B1 VH with S118V
VL: B1 VL

target: histone chaperone Anti-silencing factor 1 (Asf1) (Saccharomyces cerevisiae S288c); assay: crystal structure
Sequence (P32447 2-154): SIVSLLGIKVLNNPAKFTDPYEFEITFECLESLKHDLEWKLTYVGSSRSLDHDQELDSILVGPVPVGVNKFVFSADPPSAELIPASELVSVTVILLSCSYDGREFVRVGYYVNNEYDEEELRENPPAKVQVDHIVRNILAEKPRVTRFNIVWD

Row | binding result | Binder
1 | binds | B1
2 | binds | B2
3 | binds | B3
